Laboratory results from US20100098706A1.

Molecular target: human CD16 receptor (FcgammaRIIIa) (human) (UniProt P08637)
Assay: flow cytometry on NK cells; competition with 3G8-PE; antibody at 50 µg/ml

Chain of human CD16 receptor (FcgammaRIIIa) (human) (P08637 17-254): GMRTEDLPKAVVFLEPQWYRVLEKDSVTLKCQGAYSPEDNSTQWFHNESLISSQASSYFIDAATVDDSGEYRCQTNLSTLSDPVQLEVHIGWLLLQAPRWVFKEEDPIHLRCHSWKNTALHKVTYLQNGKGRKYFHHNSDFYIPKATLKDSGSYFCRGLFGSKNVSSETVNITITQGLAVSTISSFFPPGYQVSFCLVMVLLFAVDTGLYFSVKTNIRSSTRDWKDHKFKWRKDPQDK

Substance: Rituxan® (antibody)
- binding percentage (100% = total inhibition of 3G8 binding): 18.5%
